Where “and” joins values, the source holds several entries; their conditions need not be identical. Equal entries are not always repeated. Non-standard residues stand in square brackets, D forms with d. *: point of attachment. FITC = O=C1OC2(c3ccc(O)cc3Oc3cc(O)ccc32)c2ccc(NC(=S)*)cc21; pS = N[C@@H](COP(=O)(O)O)C(=O)O
T1: MDM2 179-193 (Homo sapiens, UniProt Q00987)
T1 chain: {FITC}-RQRKRHK[pS]DSISLSF-NH2

T2: MDM2 159-173 (Homo sapiens, UniProt Q00987)
T2 chain: {FITC}-SSRRRAI[pS]ETEENSD-NH2

T3: MDM2 179-193 (Homo sapiens, UniProt Q00987)
T3 chain: {FITC}-RQRKRHK[pS]DSISLSF-NH2


Key:
Assay in all cases: FP
MDM2 159-193 = MDM2 159-193 (Homo sapiens, UniProt Q00987, pS186, N-terminal FITC)
Chain of MDM2 159-193 (Q00987 159-193): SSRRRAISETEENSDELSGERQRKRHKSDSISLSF

MDM2 179-193 [1] = target: T1, MDM2 179-193
MDM2 159-173 = target: T2, MDM2 159-173
MDM2 179-193 [2] = target: T3, MDM2 179-193

Kd (MDM2 159-193) [µM]	Kd (MDM2 179-193 [1])	Kd (MDM2 159-173) [µM]	Kd (MDM2 179-193 [2]) [µM]	Binder
> 124	24.6 µM and ~26.2 µM	> 115	10.8	14-3-3σ (protein) MERASLIQKAKLAEQAERYEDMAAFMKGAVEKGEELSCEERNLLSVAYKNVVGGQRAAWRVLSSIEQKSNEEGSEEKGPEVREYREKVETELQGVCDTVLGLLDSHLIKEAGDAESRVFYLKMKGDYYRYLAEVATGDDKKRIIDSARSAYQEAMDISKKEMPPTNPIRLGLALNFSVFHYEIANSPEEAISLAKTTFDEAMADLHTLSEDSYKDSTLIMQLLRDNLTLWTADNAGEEGGEAPQEPQS
	11.4 µM			14-3-3ζ (protein) MDKNELVQKAKLAEQAERYDDMAACMKSVTEQGAELSNEERNLLSVAYKNVVGARRSSWRVVSSIEQKTEGAEKKQQMAREYREKIETELRDICNDVLSLLEKFLIPNASQAESKVFYLKMKGDYYRYLAEVAAGDDKKGIVDQSQQAYQEAFEISKKEMQPTHPIRLGLALNFSVFYYEILNSPEKACSLAKTAFDEAIAELDTLSEESYKDSTLIMQLLRDNLTLWTSDTQGDEAEAGEGGEN

Reference: paper PMC10864208 (2024)
